The text below walks through data of paper doi:10.1101/413294 (bioRxiv, 2018).

One series concerns the target C3b (human, UniProt P01024). The series is described as follows: SPR.
The series “SAXS” concerns the molecule itself. Description: SAXS.

Sequence of C3b (P01024 23-667, chain 1 of 2): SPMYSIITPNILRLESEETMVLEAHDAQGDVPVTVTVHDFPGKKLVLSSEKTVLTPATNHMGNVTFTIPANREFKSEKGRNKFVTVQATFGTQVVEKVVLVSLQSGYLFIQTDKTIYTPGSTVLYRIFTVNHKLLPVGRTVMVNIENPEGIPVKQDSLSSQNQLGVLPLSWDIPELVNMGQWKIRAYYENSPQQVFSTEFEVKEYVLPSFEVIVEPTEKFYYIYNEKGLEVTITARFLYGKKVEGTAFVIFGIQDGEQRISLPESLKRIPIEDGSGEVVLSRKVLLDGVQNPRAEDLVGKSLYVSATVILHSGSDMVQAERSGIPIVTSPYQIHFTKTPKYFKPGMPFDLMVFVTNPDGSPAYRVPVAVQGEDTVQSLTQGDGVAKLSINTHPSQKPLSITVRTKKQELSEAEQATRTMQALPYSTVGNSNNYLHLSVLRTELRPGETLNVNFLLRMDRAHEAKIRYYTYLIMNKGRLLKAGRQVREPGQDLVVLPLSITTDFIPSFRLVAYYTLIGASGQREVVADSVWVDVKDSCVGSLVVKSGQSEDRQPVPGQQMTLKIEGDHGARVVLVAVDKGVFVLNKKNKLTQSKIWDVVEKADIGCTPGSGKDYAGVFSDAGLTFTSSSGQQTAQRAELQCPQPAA
Sequence of C3b (P01024 749-1663, chain 2 of 2): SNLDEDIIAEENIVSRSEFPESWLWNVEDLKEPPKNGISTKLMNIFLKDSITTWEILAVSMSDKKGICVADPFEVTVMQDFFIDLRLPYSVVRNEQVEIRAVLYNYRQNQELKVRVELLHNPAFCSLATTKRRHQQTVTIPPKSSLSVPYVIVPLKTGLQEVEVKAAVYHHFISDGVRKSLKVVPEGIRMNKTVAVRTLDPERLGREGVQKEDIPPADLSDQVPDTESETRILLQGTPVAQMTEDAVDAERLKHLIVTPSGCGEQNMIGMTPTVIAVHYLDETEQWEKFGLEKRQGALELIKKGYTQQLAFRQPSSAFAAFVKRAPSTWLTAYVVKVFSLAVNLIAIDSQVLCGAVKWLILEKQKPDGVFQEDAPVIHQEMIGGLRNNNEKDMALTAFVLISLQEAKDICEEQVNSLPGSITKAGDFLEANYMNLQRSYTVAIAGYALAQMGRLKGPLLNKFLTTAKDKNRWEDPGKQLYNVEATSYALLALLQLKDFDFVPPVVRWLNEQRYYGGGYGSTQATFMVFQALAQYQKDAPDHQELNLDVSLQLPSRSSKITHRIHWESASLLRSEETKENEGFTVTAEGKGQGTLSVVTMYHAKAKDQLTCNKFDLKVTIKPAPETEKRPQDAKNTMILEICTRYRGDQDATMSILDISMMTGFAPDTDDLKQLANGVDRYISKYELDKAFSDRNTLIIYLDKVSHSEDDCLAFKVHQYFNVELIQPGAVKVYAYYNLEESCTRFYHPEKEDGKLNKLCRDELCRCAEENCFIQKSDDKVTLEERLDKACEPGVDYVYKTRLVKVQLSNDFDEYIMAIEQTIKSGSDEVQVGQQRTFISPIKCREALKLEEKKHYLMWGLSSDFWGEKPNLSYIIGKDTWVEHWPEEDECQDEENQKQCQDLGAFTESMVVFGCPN

B1: factor H-related protein 5 (FHR-5), recombinant (natural protein)
chain: EGTLCDFPKIHHGFLYDEEDYNPFSQVPTGEVFYYSCEYNFVSPSKSFWTRITCTEEGWSPTPKCLRMCSFPFVKNGHSESSGLIHLEGDTVQIICNTGYSLQNNEKNISCVERGWSTPPICSFTKGECHVPILEANVDAQPKKESYKVGDVLKFSCRKNLIRVGSDSVQCYQFGWSPNFPTCKGQVRSCGPPPQLSNGEVKEIRKEEYGHNEVVEYDCNPNFIINGPKKIQCVDGEWTTLPTCVEQVKTCGYIPELEYGYVQPSVPPYQHGVSVEVNCRNEYAMIGNNMITCINGIWTELPMCVATHQLKRCKIAGVNIKTLLKLSGKEFNHNSRIRYRCSDIFRYRHSVCINGKWNPEVDCTEKREQFCPPPPQIPNAQNMTTTVNYQDGEKVAVLCKENYLLPEAKEIVCKDGRWQSLPRCVESTAYCGPPPSINNGDTTSFPLSVYPPGSTVTYRCQSFYKLQGSVTVTCRNKQWSEPPRCLDPCVVSEENMNKNNIQLKWRNDGKLYAKTGDAVEFQCKFPHKAMISSPPFRAICQEGKFEYPICE
Turning to B1, in the series with C3b, the binding result was “binds”.

B2: FH_(19-20), the C-terminal part of factor H (SCR 19-20), recombinant (domain or fragment)
chain: KDSTGKCGPPPPIDNGDITSFPLSVYAPASSVEYQCQNLYQLEGNKRITCRNGQWSEPPKCLHPCVISREIMENYNIALRWTAKQKLYSRTGESVEFVCKRGYRLSSRSHTLRTTCWDGKLEYPTCAKR
Take B2: the binding result in the series with C3b is reported as “binds”.

B3: factor H-related protein 1 (FHR-1), recombinant (natural protein)
chain: EATFCDFPKINHGILYDEEKYKPFSQVPTGEVFYYSCEYNFVSPSKSFWTRITCTEEGWSPTPKCLRLCFFPFVENGHSESSGQTHLEGDTVQIICNTGYRLQNNENNISCVERGWSTPPKCRSTDTSCVNPPTVQNAHILSRQMSKYPSGERVRYECRSPYEMFGDEEVMCLNGNWTEPPQCKDSTGKCGPPPPIDNGDITSFPLSVYAPASSVEYQCQNLYQLEGNKRITCRNGQWSEPPKCLHPCVISREIMENYNIALRWTAKQKLYLRTGESAEFVCKRGYRLSSRSHTLRTTCWDGKLEYPTCAKR
Take B3: the “stoichiometry N” value in “SAXS” turned out to be 2.

B4: factor H-related protein 2 (FHR-2), recombinant (natural protein)
chain: EAMFCDFPKINHGILYDEEKYKPFSQVPTGEVFYYSCEYNFVSPSKSFWTRITCAEEGWSPTPKCLRLCFFPFVENGHSESSGQTHLEGDTVQIICNTGYRLQNNENNISCVERGWSTPPKCRSTISAEKCGPPPPIDNGDITSFLLSVYAPGSSVEYQCQNLYQLEGNNQITCRNGQWSEPPKCLDPCVISQEIMEKYNIKLKWTNQQKLYSRTGDIVEFVCKSGYHPTKSHSFRAMCQNGKLVYPSCEEK
As for B4, the binding result with C3b was “binds”.

B5: Factor H (FH), plasma purified (natural protein)
chain: EDCNELPPRRNTEILTGSWSDQTYPEGTQAIYKCRPGYRSLGNVIMVCRKGEWVALNPLRKCQKRPCGHPGDTPFGTFTLTGGNVFEYGVKAVYTCNEGYQLLGEINYRECDTDGWTNDIPICEVVKCLPVTAPENGKIVSSAMEPDREYHFGQAVRFVCNSGYKIEGDEEMHCSDDGFWSKEKPKCVEISCKSPDVINGSPISQKIIYKENERFQYKCNMGYEYSERGDAVCTESGWRPLPSCEEKSCDNPYIPNGDYSPLRIKHRTGDEITYQCRNGFYPATRGNTAKCTSTGWIPAPRCTLKPCDYPDIKHGGLYHENMRRPYFPVAVGKYYSYYCDEHFETPSGSYWDHIHCTQDGWSPAVPCLRKCYFPYLENGYNQNYGRKFVQGKSIDVACHPGYALPKAQTTVTCMENGWSPTPRCIRVKTCSKSSIDIENGFISESQYTYALKEKAKYQCKLGYVTADGETSGSITCGKDGWSAQPTCIKSCDIPVFMNARTKNDFTWFKLNDTLDYECHDGYESNTGSTTGSIVCGYNGWSDLPICYERECELPKIDVHLVPDRKKDQYKVGEVLKFSCKPGFTIVGPNSVQCYHFGLSPDLPICKEQVQSCGPPPELLNGNVKEKTKEEYGHSEVVEYYCNPRFLMKGPNKIQCVDGEWTTLPVCIVEESTCGDIPELEHGWAQLSSPPYYYGDSVEFNCSESFTMIGHRSITCIHGVWTQLPQCVAIDKLKKCKSSNLIILEEHLKNKKEFDHNSNIRYRCRGKEGWIHTVCINGRWDPEVNCSMAQIQLCPPPPQIPNSHNMTTTLNYRDGEKVSVLCQENYLIQEGEEITCKDGRWQSIPLCVEKIPCSQPPQIEHGTINSSRSSQESYAHGTKLSYTCEGGFRISEENETTCYMGKWSSPPQCEGLPCKSPPEISHGVVAHMSDSYQYGEEVTYKCFEGFGIDGPAIAKCLGEKWSHPPSCIKTDCLSLPSFENAIPMGEKKDVYKAGEQVTYTCATYYKMDGASNVTCINSRWTGRPTCRDTSCVNPPTVQNAYIVSRQMSKYPSGERVRYQCRSPYEMFGDEEVMCLNGNWTEPPQCKDSTGKCGPPPPIDNGDITSFPLSVYAPASSVEYQCQNLYQLEGNKRITCRNGQWSEPPKCLHPCVISREIMENYNIALRWTAKQKLYSRTGESVEFVCKRGYRLSSRSHTLRTTCWDGKLEYPTCAKR
As for B5, the binding result with C3b was “binds”.
